Data on 25 molecules can be found in patent US20240018502A1.

Residue numbers refer to the chain shown, from its start. Names and notes keep the numbering of the source.

B1: Q38H/I41S/D60bT/F60eS/Y60gW/D96K/F97G/ins97aV/T98P/F99L/C122S/G151H/Q175L/Q192D (enzyme)
chain: VVGGTDADEGEWPWQVSLHALGHGHSCGASLISPNWLVSAAHCYIDTRGSRWSDPTQWTAFLGLHDQSQRSAPGVQERRLKRIISHPFFNKGVPLDYDIALLELEKPAEYSSMVRPISLPDASHVFPAGKAIWVTGWGHTQYGGTHALILQKGEIRVINQTTCENLLPQLITPRMMCVGFLSGGVDSCDGDSGGPLSSVEADGRIFQAGVVSWGDGCAQRNKPGVYTRLPLFRDWIKENTGV
B2: Q38H/I41A/D60bV/F60eR/Y60gW/F97T/ins97aE/T98G/F99L/C122S/G151N/Q175L/Q192D (enzyme)
chain: B1 chain with S26A, T47V, S50R, K91D, G92T, V93E, P94G, H146N
B3: Q38H/I41S/D60bT/F60eS/Y60gW/F97D/ins97aV/T98P/F99L/C122S/G151H/Q175L/Q192E (enzyme)
chain: B1 chain with K91D, G92D, D189E
B4: Q38H/I41A/D60bV/F60eR/Y60gW/D96I/F97Y/ins97aN/T98G/F99L/C122S/G151N/Q175L/Q192D (enzyme)
chain: B1 chain with S26A, T47V, S50R, K91I, G92Y, V93N, P94G, H146N
B5: Q38H/I41A/D60bT/F60eK/Y60gW/F97T/ins97aE/T98G/F99L/C122S/G151N/Q175L/Q192D (enzyme)
chain: B1 chain with S26A, S50K, K91D, G92T, V93E, P94G, H146N
B6: Q38H/I41A/D60bV/F60eR/Y60gW/D96I/F97N/T98G/F99L/C122S/G151N/Q175L/Q192D (enzyme)
chain: VVGGTDADEGEWPWQVSLHALGHGHACGASLISPNWLVSAAHCYIDVRGRRWSDPTQWTAFLGLHDQSQRSAPGVQERRLKRIISHPFFNINGLDYDIALLELEKPAEYSSMVRPISLPDASHVFPAGKAIWVTGWGHTQYGGTNALILQKGEIRVINQTTCENLLPQLITPRMMCVGFLSGGVDSCDGDSGGPLSSVEADGRIFQAGVVSWGDGCAQRNKPGVYTRLPLFRDWIKENTGV
B7: Modified MTSP-1 protease domain Q38H/I41S/D60bT/F60eS/Y60gW/D96K/F97G/ins97aV/T98P/F99L/C122S/G151H/Q175L/Q192D (enzyme)
chain: B1 chain
B8: Modified MTSP-1 protease domain Q38H/I41A/D60bV/F60eR/Y60gW/D96I/F97N/T98G/F99L/C122S/G151N/Q175L/Q192D (enzyme)
chain: B6 chain
B9: Modified MTSP-1 protease domain Q38H/I41A/D60bV/F60eR/Y60gW/F97T/ins97aE/T98G/F99L/C122S/G151H/Q175L/Q192D (enzyme)
chain: B1 chain with S26A, T47V, S50R, K91D, G92T, V93E, P94G
B10: Q38H/I41S/D60bT/F60eS/Y60gW/D96K/F97D/ins97aA/T98P/F99L/C122S/G151H/Q175L/Q192D (enzyme)
chain: B1 chain with G92D, V93A
B11: I41R/F97T/Ins97aE/T98G/F99L/C122S/G151N/Q175L/Q192E (enzyme)
chain: VVGGTDADEGEWPWQVSLHALGQGHRCGASLISPNWLVSAAHCYIDDRGFRYSDPTQWTAFLGLHDQSQRSAPGVQERRLKRIISHPFFNDTEGLDYDIALLELEKPAEYSSMVRPISLPDASHVFPAGKAIWVTGWGHTQYGGTNALILQKGEIRVINQTTCENLLPQLITPRMMCVGFLSGGVDSCEGDSGGPLSSVEADGRIFQAGVVSWGDGCAQRNKPGVYTRLPLFRDWIKENTGV
B12: Modified MTSP-1 protease domain Q38H/I41A/D60bT/F60eK/Y60gW/F97T/ins97aE/T98G/F99L/C122S/G151N/Q175L/Q192D (enzyme)
chain: B11 chain with Q23H, R26A, D47T, F50K, Y52W, E189D
B13: Modified MTSP-1 protease domain Q38H/I41A/D60bV/F60eR/Y60gW/D96P/F97W/ins97aN/T98G/F99L/C122S/G151N/Q175L/Q192E (enzyme)
chain: B11 chain with Q23H, R26A, D47V, F50R, Y52W, D91P, T92W, E93N
B14: Q38H/I41A/D60bT/F60eK/Y60gW/F97T/ins97aE/T98G/F99L/C122S/G151H/Q175L/Q192D (enzyme)
chain: B1 chain with S26A, S50K, K91D, G92T, V93E, P94G
B15: Modified MTSP-1 protease domain I41R/F97T/Ins97aE/T98G/F99L/C122S/G151N/Q175L/Q192E (enzyme)
chain: B11 chain
B16: Q38H/I41S/D60bT/F60eS/Y60gW/F97D/ins97aV/T98P/F99L/C122S/G151H/Q175L/Q192D (enzyme)
chain: B1 chain with K91D, G92D
B17: Modified MTSP-1 protease domain Q38H/I41S/D60bT/F60eS/Y60gW/D96Y/F97E/ins97aV/T98G/F99L/C122S/G151H/Q175L/Q192D (enzyme)
chain: B1 chain with K91Y, G92E, P94G
B18: Modified MTSP-1 protease domain Q38H/I41S/D60bT/F60eS/Y60gW/D96V/F97G/ins97aV/T98P/F99L/C122S/G151H/Q175L/Q192D (enzyme)
chain: B1 chain with K91V
B19: Modified MTSP-1 protease domain Q38H/I41A/D60bV/F60eR/Y60gW/F97T/ins97aE/T98G/F99L/C122S/G151N/Q175L/Q192D (enzyme)
chain: B11 chain with Q23H, R26A, D47V, F50R, Y52W, E189D
B20: Modified MTSP-1 protease domain Q38H/I41A/D60bV/F60eR/Y60gW/D96I/F97Y/ins97aN/T98G/F99L/C122S/G151N/Q175L/Q192D (enzyme)
chain: B1 chain with S26A, T47V, S50R, K91I, G92Y, V93N, P94G, H146N
B21: Q38H/I41A/D60bV/F60eR/Y60gW/F97T/ins97aE/T98G/F99L/C122S/G151H/Q175L/Q192D (enzyme)
chain: B1 chain with S26A, T47V, S50R, K91D, G92T, V93E, P94G
B22: Modified MTSP-1 protease domain Q38H/I41S/D60bT/F60eS/Y60gW/D96K/F97D/ins97aA/T98P/F99L/C122S/G151H/Q175L/Q192D (enzyme)
chain: B1 chain with G92D, V93A
B23: Modified MTSP-1 protease domain Q38H/I41S/D60bT/F60eS/Y60gW/D96K/F97D/ins97aA/T98P/F99L/C122S/G151N/Q175L/Q192D (enzyme)
chain: B1 chain with G92D, V93A, H146N
B24: Modified MTSP-1 protease domain Q38H/I41S/D60bT/F60eS/Y60gW/D96L/F97D/ins97aG/T98N/F99L/C122S/G151H/Q175L/Q192E (enzyme)
chain: B1 chain with K91L, G92D, V93G, P94N, D189E
B25: Wild-type MTSP-1 protease domain with C122S (enzyme)
chain: VVGGTDADEGEWPWQVSLHALGQGHICGASLISPNWLVSAAHCYIDDRGFRYSDPTQWTAFLGLHDQSQRSAPGVQERRLKRIISHPFFNDFTFDYDIALLELEKPAEYSSMVRPISLPDASHVFPAGKAIWVTGWGHTQYGGTGALILQKGEIRVINQTTCENLLPQQITPRMMCVGFLSGGVDSCQGDSGGPLSSVEADGRIFQAGVVSWGDGCAQRNKPGVYTRLPLFRDWIKENTGV

Sequence of human complement protein C3 (human) (P01024 23-667, chain 1 of 2): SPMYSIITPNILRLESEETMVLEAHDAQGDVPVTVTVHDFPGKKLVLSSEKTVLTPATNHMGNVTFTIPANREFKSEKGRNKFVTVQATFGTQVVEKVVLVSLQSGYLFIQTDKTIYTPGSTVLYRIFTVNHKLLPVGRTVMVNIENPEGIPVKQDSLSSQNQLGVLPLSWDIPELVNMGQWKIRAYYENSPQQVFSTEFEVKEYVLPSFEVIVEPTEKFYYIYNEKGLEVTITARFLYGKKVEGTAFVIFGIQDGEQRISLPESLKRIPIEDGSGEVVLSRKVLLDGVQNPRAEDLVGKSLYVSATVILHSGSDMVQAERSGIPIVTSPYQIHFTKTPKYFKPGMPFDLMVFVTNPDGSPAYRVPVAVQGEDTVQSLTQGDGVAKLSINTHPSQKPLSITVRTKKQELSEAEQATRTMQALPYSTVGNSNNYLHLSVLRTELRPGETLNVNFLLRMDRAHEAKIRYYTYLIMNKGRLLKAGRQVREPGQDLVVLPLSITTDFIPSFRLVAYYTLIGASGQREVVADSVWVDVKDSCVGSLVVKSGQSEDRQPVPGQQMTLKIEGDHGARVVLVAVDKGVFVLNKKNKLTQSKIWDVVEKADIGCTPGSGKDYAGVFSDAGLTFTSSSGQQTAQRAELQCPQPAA
Sequence of human complement protein C3 (human) (P01024 672-1663, chain 2 of 2): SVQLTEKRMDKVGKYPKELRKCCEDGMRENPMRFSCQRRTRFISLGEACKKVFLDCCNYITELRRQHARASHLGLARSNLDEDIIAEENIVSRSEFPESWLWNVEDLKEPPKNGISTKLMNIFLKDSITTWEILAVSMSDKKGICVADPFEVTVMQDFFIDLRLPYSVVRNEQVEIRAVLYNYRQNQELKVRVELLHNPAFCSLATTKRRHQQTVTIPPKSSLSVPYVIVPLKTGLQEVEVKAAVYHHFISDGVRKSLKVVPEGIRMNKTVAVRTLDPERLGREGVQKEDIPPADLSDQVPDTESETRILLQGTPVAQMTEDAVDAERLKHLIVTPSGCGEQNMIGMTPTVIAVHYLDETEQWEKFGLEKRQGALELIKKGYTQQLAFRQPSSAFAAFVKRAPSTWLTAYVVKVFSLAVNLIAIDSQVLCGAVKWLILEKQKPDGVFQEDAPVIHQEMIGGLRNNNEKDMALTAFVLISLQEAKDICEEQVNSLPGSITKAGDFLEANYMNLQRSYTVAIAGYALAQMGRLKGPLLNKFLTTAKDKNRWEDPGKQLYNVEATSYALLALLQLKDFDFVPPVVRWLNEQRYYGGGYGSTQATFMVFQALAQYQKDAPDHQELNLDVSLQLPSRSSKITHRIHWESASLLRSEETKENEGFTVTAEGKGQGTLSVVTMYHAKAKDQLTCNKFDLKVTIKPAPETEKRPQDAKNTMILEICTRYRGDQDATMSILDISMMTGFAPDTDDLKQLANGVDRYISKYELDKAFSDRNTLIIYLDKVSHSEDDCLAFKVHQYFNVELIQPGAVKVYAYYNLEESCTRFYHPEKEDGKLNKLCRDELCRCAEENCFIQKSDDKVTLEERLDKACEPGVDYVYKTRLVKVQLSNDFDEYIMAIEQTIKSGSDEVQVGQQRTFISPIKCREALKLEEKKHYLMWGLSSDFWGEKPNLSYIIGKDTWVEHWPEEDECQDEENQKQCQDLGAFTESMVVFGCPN
Sequence of proteinase-activated receptor 2 (PAR-2) (P55085 37-397 limits assumed): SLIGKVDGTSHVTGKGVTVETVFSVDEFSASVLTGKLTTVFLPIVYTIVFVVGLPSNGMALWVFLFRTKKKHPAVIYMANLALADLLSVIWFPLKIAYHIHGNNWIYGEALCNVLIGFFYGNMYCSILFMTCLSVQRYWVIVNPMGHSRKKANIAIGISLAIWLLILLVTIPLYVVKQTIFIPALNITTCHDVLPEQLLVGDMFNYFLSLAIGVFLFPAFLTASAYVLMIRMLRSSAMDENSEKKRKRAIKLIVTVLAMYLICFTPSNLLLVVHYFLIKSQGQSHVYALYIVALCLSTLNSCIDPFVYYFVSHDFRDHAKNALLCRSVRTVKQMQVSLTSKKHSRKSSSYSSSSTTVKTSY

In the first assay the target is complement protein C3 of cynomolgus monkey plasma (cynomolgus monkey). Put plainly: cell-based or functional assay.
The molecule B1 displayed a C3 destruction ED50 (mg/kg), in vivo, intravenous injection, cynomolgus monkey of 0.07 mg/kg. Take B2: the C3 destruction ED50 (mg/kg), in vivo, intravenous injection, cynomolgus monkey is 0.2 mg/kg. Take B3: the C3 destruction ED50 (mg/kg), in vivo, intravenous injection, cynomolgus monkey turned out to be 0.1 mg/kg.

B4 registered a C3 destruction ED50 (mg/kg), in vivo, intravenous injection, cynomolgus monkey of 0.06 mg/kg. In turn, B5 had a C3 destruction ED50 (mg/kg), in vivo, intravenous injection, cynomolgus monkey of 0.2 mg/kg.

The next assay concerns the target human complement protein C3 (human) (UniProt P01024). Put plainly: cell-based or functional assay.
B6 gave an EC50 (nM), cleavage of purified hC3 in vitro of 2.87 nM. For the molecule B1, the % Inhibition of CH50, human citrated plasma, 3.2 nM test article was -5%; the % Inhibition of CH50, human citrated plasma, 16 nM test article amounted to 1%; the % Inhibition of CH50, human citrated plasma, 80 nM test article turned out to be 40%; the % Inhibition of CH50, human citrated plasma, 400 nM test article stood at 84%. In addition, the % Inhibition of CH50, human citrated plasma, 2000 nM test article was determined as 92% and the EC50 (nM), cleavage of purified hC3 in vitro came out at 6.86 nM. As to B7, the inhibition of classical pathway hemolytic assay (CH50) in human plasma at the highest dose (2000 nM) turned out to be 94%.

A further assay concerns the target proteinase-activated receptor 2 (PAR-2) (UniProt P55085). Nature of the assay: cell-based or functional assay.
B8 had a PAR-2 cell based assay ED50 and SKGR/SL kcat/Km, against wild-type MTSP-1 protease domain with C122S of more than 30 fold. B6 registered a PAR-2 Cell Based Assay ED50 of 150 nM.

Turning to B9, the PAR-2 cell based assay ED50 and SKGR/SL kcat/Km, against wild-type MTSP-1 protease domain with C122S was more than 30 fold. B10 had a PAR-2 Cell Based Assay ED50 of 420 nM.

B11 gave a PAR-2 Cell Based Assay ED50 of 2600 nM. In turn, B12 showed a PAR-2 cell based assay ED50 and SKGR/SL kcat/Km, against wild-type MTSP-1 protease domain with C122S of more than 30 fold. B13 gave a PAR-2 cell based assay ED50 and SKGR/SL kcat/Km, against wild-type MTSP-1 protease domain with C122S of more than 30 fold. On to B14, for which the PAR-2 Cell Based Assay ED50 came out at 560 nM.

In turn, B15 showed a PAR-2 cell based assay ED50 and SKGR/SL kcat/Km, against wild-type MTSP-1 protease domain with C122S of more than 30 fold. Turning to B2, the PAR-2 Cell Based Assay ED50 is 690 nM. With B16, the PAR-2 Cell Based Assay ED50 was determined as 640 nM. As for B7, the PAR-2 cell based assay ED50 and SKGR/SL kcat/Km, against wild-type MTSP-1 protease domain with C122S is more than 30 fold. Still for that read-out and setting: as for B17, the figure is more than 30 fold. In turn, B18 showed a PAR-2 cell based assay ED50 and SKGR/SL kcat/Km, against wild-type MTSP-1 protease domain with C122S of more than 30 fold. Regarding B19, the PAR-2 cell based assay ED50 and SKGR/SL kcat/Km, against wild-type MTSP-1 protease domain with C122S is more than 30 fold.

B20 yielded a PAR-2 cell based assay ED50 and SKGR/SL kcat/Km, against wild-type MTSP-1 protease domain with C122S of more than 30 fold. For the molecule B21, the PAR-2 Cell Based Assay ED50 came out at 430 nM. Molecule B22 had a PAR-2 cell based assay ED50 and SKGR/SL kcat/Km, against wild-type MTSP-1 protease domain with C122S of more than 30 fold.

B3 registered a PAR-2 Cell Based Assay ED50 of 1800 nM. On to B23, for which the PAR-2 cell based assay ED50 and SKGR/SL kcat/Km, against wild-type MTSP-1 protease domain with C122S was more than 30 fold. With B4, the PAR-2 Cell Based Assay ED50 came to 450 nM. Same read-out and setting: under B5 stands 1900 nM.

Molecule B24 returned a PAR-2 cell based assay ED50 and SKGR/SL kcat/Km, against wild-type MTSP-1 protease domain with C122S of more than 30 fold. As to B25, the PAR-2 Cell Based Assay ED50 stood at 1.4 nM.
